Measured values published in publication PMC11091055 (Signal Transduction and Targeted Therapy, 2024).

Experiments:
Assay in all cases: SPR
Conditions in all cases: both partners purified
[1] = target: T1, SARS-CoV-2 Omicron JN.1 S NTD, human Fc-tagged (SARS-CoV-2 Omicron JN.1, strain)
T1 construct: also called JN.1 NTD
T1 chain: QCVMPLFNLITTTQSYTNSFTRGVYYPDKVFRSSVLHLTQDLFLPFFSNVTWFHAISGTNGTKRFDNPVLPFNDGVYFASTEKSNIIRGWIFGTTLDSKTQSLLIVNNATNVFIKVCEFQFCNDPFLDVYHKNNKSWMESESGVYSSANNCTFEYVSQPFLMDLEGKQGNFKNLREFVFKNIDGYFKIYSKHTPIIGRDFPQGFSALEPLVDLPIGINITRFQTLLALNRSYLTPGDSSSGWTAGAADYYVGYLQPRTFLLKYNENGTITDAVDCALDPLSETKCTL

[2] = target: T2, SARS-CoV-2 Omicron BA.2 S NTD, human Fc-tagged (SARS-CoV-2 Omicron BA.2, strain)
T2 construct: also called BA.2 NTD
T2 chain: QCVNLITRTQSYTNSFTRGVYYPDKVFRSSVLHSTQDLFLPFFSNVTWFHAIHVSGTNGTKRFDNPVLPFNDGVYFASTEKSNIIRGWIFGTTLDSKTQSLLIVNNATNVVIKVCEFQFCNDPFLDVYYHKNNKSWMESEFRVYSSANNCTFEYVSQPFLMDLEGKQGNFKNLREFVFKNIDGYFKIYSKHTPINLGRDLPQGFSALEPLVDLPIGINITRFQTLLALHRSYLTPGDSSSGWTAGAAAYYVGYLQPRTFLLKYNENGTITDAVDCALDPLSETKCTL

[3] = target: T3, SARS-CoV-2 Omicron XBB.1.16 S NTD, human Fc-tagged (SARS-CoV-2 Omicron XBB.1.16, strain)
T3 construct: also called XBB.1.16 NTD
T3 chain: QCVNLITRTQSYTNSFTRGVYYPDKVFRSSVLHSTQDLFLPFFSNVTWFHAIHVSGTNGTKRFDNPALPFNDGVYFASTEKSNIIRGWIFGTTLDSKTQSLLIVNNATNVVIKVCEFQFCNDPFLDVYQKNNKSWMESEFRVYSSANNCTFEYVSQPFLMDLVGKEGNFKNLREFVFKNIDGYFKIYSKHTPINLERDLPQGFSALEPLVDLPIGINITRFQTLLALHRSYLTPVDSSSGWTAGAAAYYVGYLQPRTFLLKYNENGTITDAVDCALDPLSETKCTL

[4] = target: T4, SARS-CoV-2 Omicron XBB.1.5 S NTD, human Fc-tagged (SARS-CoV-2 Omicron XBB.1.5, strain)
T4 construct: also called XBB.1.5 NTD
T4 chain: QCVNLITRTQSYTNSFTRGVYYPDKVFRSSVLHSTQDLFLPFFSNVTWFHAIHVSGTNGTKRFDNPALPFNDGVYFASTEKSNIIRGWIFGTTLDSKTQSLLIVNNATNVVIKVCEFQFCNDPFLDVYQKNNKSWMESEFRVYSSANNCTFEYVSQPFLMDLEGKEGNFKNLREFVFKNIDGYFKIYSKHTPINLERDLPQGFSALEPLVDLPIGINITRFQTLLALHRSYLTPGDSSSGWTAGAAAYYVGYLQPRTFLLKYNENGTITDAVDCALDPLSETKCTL

[5] = target: T5, SARS-CoV-2 Omicron BA.2.3.20 S NTD, human Fc-tagged (SARS-CoV-2 Omicron BA.2.3.20, strain)
T5 construct: also called BA.2.3.20 NTD
T5 chain: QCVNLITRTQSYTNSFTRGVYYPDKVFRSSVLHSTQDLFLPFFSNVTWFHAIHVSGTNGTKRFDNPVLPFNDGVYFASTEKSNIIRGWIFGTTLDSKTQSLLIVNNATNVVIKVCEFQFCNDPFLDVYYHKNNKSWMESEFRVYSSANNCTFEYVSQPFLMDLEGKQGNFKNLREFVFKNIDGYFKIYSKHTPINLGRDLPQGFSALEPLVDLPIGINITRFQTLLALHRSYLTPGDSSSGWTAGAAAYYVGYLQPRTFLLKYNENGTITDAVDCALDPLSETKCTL

[6] = target: T6, SARS-CoV-2 Omicron BA.1 S NTD, human Fc-tagged (SARS-CoV-2 Omicron BA.1, strain)
T6 construct: also called BA.1 NTD

[7] = target: T7, SARS-CoV-2 Omicron XBB S NTD, human Fc-tagged (SARS-CoV-2 Omicron XBB, strain)
T7 construct: also called XBB NTD
T7 chain: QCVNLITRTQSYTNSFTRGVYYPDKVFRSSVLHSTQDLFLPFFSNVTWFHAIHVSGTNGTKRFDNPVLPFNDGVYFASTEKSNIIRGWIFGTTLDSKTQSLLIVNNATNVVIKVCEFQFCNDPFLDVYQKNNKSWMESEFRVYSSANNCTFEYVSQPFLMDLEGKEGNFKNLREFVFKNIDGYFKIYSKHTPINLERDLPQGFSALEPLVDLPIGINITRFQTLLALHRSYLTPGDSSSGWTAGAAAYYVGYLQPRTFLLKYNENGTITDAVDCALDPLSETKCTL

[8] = target: T8, SARS-CoV-2 Omicron BA.2.86 S NTD, human Fc-tagged (SARS-CoV-2 Omicron BA.2.86, strain)
T8 construct: also called BA.2.86 NTD
T8 chain: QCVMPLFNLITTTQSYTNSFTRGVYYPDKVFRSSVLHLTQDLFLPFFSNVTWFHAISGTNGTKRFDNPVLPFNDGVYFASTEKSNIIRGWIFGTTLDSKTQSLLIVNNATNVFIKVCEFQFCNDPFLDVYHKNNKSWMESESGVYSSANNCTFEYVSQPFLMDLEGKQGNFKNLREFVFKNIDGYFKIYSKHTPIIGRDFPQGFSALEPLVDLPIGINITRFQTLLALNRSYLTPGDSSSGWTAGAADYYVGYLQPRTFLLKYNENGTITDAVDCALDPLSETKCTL

[9] = target: T9, SARS-CoV-2 Omicron BA.5 S NTD, human Fc-tagged (SARS-CoV-2 Omicron BA.5, strain)
T9 construct: also called BA.5 NTD
T9 chain: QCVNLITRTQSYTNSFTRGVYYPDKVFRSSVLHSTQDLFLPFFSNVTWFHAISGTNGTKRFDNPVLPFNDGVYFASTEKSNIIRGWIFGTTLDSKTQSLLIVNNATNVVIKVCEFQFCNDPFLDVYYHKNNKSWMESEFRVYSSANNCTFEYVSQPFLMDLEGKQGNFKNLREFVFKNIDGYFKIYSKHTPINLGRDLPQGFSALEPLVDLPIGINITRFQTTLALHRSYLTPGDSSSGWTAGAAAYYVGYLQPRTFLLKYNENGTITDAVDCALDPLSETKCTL

[10] = target: T10, SARS-CoV-2 Omicron EG.5.1 S NTD, human Fc-tagged (SARS-CoV-2 Omicron EG.5.1, strain)
T10 construct: also called EG.5.1 NTD
T10 chain: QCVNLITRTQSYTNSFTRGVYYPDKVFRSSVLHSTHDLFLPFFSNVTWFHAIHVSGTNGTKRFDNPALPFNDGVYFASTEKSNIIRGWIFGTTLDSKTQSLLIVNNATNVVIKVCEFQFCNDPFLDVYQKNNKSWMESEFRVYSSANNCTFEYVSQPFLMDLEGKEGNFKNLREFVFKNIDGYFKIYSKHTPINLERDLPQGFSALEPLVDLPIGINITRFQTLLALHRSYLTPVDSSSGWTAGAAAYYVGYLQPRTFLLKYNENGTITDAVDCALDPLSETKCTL

[11] = target: T11, SARS-CoV-2 Omicron BA.2.75 S NTD, human Fc-tagged (SARS-CoV-2 Omicron BA.2.75, strain)
T11 construct: also called BA.2.75 NTD
T11 chain: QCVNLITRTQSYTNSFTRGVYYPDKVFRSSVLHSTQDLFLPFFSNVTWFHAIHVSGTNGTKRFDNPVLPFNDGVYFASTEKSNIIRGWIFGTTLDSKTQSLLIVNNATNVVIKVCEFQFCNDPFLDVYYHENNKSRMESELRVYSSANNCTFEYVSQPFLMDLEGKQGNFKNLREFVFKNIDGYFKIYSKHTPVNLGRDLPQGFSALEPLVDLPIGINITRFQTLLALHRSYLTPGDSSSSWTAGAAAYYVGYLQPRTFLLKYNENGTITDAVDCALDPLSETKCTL

[12] = target: T12, SARS-CoV-2 Omicron BA.3 S NTD, human Fc-tagged (SARS-CoV-2 Omicron BA.3, strain)
T12 construct: also called BA.3 NTD

[13] = target: T13, SARS-CoV-2 Lambda S NTD, human Fc-tagged (SARS-CoV-2 Lambda (C.37), strain)
T13 construct: also called Lambda NTD
T13 chain: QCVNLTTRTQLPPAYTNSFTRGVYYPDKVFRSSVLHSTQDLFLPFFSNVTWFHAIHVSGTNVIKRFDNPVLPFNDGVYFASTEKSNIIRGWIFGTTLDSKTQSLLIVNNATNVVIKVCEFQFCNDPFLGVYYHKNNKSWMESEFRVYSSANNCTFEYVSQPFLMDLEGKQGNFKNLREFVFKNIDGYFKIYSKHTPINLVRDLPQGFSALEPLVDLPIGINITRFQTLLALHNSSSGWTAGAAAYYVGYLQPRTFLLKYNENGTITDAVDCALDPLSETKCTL

[14] = target: T14, SARS-CoV-2 Delta S NTD, human Fc-tagged (SARS-CoV-2 Delta (B.1.617.2), strain)
T14 construct: also called Delta NTD

Measured: Kd

B1: nanobody N235, His-tagged (VHH)
VHH: QVQLQESGGGLVQPGGSLRLSCAASGLIISRYDMSWYRQAPGKERELVATTPIPAARPQYADSVKGRFTISRDNAKNTVSLQMNSLKPEDTAVYYCNLGPESQDHNYNYWGQGTQVTVSS
< 0.2 nM: [1] | [2] | [3] | [4] | [5] | [6] | [7] | [8] | [9] | [10] | [11] | [12] | [13] | [14]
